Tests used:
Pak2 kinase = Pak2 kinase (UniProt Q13177); assay: cell-based or functional assay
[1] = molecular target: HIV-1 Nef protein (wild-type, HIV-1 Clade B)

HIV-1 Nef protein (wild-type, HIV-1 Clade B)
phosphorylation of Pak2 at S55, quantitative phosphoproteomics of CAR T cells stimulated by NALM6 cells (Nef-WT compared to NefAxxA) (log2 fold change) (Pak2 kinase): 2.15 | phosphorylation of Pak2 at S152, quantitative phosphoproteomics of CAR T cells stimulated by NALM6 cells (Nef-WT compared to NefAxxA) (log2 fold change) (Pak2 kinase): 1.17

B1: Pak2 kinase (protein)
chain: SDNGELEDKPPAPPVRMSSTIFSTGGKDPLSANHSLKPLPSVPEEKKPRHKIISIFSGTEKGSKKKEKERPEISPPSDFEHTIHVGFDAVTGEFTGMPEQWARLLQTSNITKLEQKKNPQAVLDVLKFYDSNTVKQKYLSFTPPEKDGFPSGTPALNAKGTEAPAVVTEEEDDDEETAPPVIAPRPDHTKSIYTRSVIDPVPAPVGDSHVDGAAKSLDKQKKKTKMTDEEIMEKLRTIVSIGDPKKKYTRYEKIGQGASGTVFTATDVALGQEVAIKQINLQKQPKKELIINEILVMKELKNPNIVNFLDSYLVGDELFVVMEYLAGGSLTDVVTETCMDEAQIAAVCRECLQALEFLHANQVIHRDIKSDNVLLGMEGSVKLTDFGFCAQITPEQSKRSTMVGTPYWMAPEVVTRKAYGPKVDIWSLGIMAIEMVEGEPPYLNENPLRALYLIATNGTPELQNPEKLSPIFRDFLNRCLEMDVEKRGSAKELLQHPFLKLAKPLSSLTPLIMAAKEAMKSNR
Pak2 phosphorylation by gel electrophoresis / Western blot [1]: Nef variants that promote CAR T cell activity in vivo (Nef WT, NefWP and NefD123G) but not NefAxxA expressing CARs also promoted Pak2 phosphorylation | Pak2 phosphorylation by gel electrophoresis / Western blot (NefD123G (Nef variant)): Nef variants that promote CAR T cell activity in vivo (Nef WT, NefWP and NefD123G) but not NefAxxA expressing CARs also promoted Pak2 phosphorylation | Pak2 phosphorylation by gel electrophoresis / Western blot (NefWP (Nef variant)): Nef variants that promote CAR T cell activity in vivo (Nef WT, NefWP and NefD123G) but not NefAxxA expressing CARs also promoted Pak2 phosphorylation

Reference: patent US20260007750A1
